{"source": "patent US20210238279A1", "about": "(Johns Hopkins, published 2021)", "binders": {"B1": {"name": "mAb20 (antibody, V domains shown)", "VH": "QIQLVQSGPELKKPGETVKISCKASGYIFTNYPMHWVKQAPGKGLKWMGWINTYSGVPTHADDFKGRFAFSLETSANSAFLQINNLKNEDTATYFCTRSRITPTGGYAMDYWGQGTSVTVSS", "VL": "DVVMTQTPLSLPVSLGDQASISCRSSQSLVHSNGNTYLHWYLQKPGQSPNLLISKVSNRFSGVPERFSGSGSGTDFTLKISRVEAEDLGVYFCSQNTHVPWTFGGGTKLEIKR", "notes": "Mouse hybridoma mAb purified on protein A/G; In some assays it was labelled with Alexa Fluor 488 or terbium cryptate; also called monoclonal antibody mAb20; anti-ZnT8 mAb20"}, "B2": {"name": "mAb39 (antibody, V domains shown)", "VH": "QVQLQQPGAELVKPGASVKLSCKASGYSFTTYWMHWVKQRPGQGLEWVGDINPRNGRTNYNEKSKSKATLTVDISSSTVYMQVSSLTSEDSAVYYCAIWSGAMDYWGPGTSVTVSS", "VL": "B1 VL with A19P, R24K, S32N, N50K, S54Y, E65D, N96T, W101P", "notes": "Mouse hybridoma mAb purified on protein A/G; In some assays it was labelled with Alexa Fluor 555 or d2; also called monoclonal antibody mAb39; anti-ZnT8 mAb39"}}, "key": {"[1]": {"molecular_target": "T1, mouse ZnT8-His (mouse, UniProt Q8BGG0 1-367, limits assumed)", "T1 construct": "Over-expressed in HEK293 cells, solubilized with DDM and immobilized on Ni-NTA plates, or SDS-denatured on immunoblots; not shown: C-terminal poly-histidine tag", "T1 sequence (looked up)": "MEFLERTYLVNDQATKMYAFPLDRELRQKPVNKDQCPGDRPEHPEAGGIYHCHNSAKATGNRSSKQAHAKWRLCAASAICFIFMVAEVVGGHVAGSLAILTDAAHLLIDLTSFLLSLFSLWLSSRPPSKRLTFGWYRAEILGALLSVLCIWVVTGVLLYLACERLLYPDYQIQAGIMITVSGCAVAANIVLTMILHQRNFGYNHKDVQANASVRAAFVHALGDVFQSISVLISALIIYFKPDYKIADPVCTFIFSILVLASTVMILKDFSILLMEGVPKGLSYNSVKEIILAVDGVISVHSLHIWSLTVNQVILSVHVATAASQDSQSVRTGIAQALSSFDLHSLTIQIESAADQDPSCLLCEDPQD", "test": "ELISA titration on mouse ZnT8-His immobilized on Ni-NTA plate; apparent binding affinity, one-component fit; DDM-solubilized mouse ZnT8 immobilized to Ni-NTA plate via His-tag; mAb titration", "excerpt": "(§1) FIG. 7A-7D. mAb binding specificities (FIG. 7A) mAb binding to ZnT8-His immobilized to Ni-NTA plate. Bound mAb20 (red) or mAb39 (magenta) was detected by an HRP-conjugated secondary antibody. Solid lines are least-squares fits of binding datapoints to a one-component binding process. Error bars are standard errors (n=8). (FIG. 7B) SDS-denatured mouse ZnT8-His (labeled as M) and human ZnT8-His (labeled as H) on immunoblots were detected by mAb20 or mAb39 as indicated. […] (FIG. 7C) Detection of endogenous human ZnT8 in EndoC-βH cells by mAb20 or […] immunoblotting. An equal amount of EndoC-βH lysate (5 μg total protein) was loaded to each lane. (FIG. 7D) Immunoblotting of HEK lysates with or with over-expression of a ZnT homolog as indicated. An approximately equal amount of total lysate protein (5 μg) was located to each lane, probed by either mAb20, mAb39, or anti-FALG antibody as indicated. FIG. 8. HTRF response to human ZnT8, mouse ZnT8 and human ZnT3.\n(§2) Binding specificities. […] Of note, the epitope-masking effect of ZnT8 immobilization weakened the apparent binding affinities of both mAbs as compared to the affinities determined by flow-cytometry, and such a weakening effect was more pronounced for mAb39, probably due to a closer proximity of the mAb39 epitope to the C-terminal His-tag. Next, we compared the immunoreactivities of mAbs to denatured ZnT8."}, "[2]": {"molecular_target": "T2, human ZnT1 with C-terminal FLAG tag (human, UniProt Q9Y6M5 1-507)", "T2 construct": "Commercial HEK293 lysate (Origene), SDS-denatured on immunoblots; not shown: C-terminal FLAG octapeptide", "T2 sequence (looked up)": "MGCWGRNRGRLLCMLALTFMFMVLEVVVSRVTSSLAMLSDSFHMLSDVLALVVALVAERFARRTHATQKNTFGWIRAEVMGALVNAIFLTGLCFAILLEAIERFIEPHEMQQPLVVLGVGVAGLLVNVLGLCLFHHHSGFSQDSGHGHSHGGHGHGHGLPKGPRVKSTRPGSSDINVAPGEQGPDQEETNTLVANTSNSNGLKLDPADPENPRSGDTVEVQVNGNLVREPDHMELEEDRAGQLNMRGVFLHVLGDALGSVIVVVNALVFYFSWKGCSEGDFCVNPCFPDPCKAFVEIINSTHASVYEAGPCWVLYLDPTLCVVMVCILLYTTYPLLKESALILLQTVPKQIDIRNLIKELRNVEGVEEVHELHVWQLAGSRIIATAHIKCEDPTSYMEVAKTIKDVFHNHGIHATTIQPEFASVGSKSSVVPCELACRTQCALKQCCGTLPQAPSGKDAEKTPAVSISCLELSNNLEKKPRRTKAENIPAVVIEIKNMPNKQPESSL", "test": "immunoblot of HEK293 lysates over-expressing FLAG-tagged ZnT homologs", "excerpt": "as §1\nImmunoblotting. SDS-solubilized cell lysate of EndoC-β cells or HEK293 cells over-expressing ZnT8 was subjected to SDS-PAGE and probed with a 1:3000 mAb20 or mAb39, followed by 1:3000 anti-mouse HRP-conjugated secondary antibody (GE Healthcare cat. #NA931V). A duplicated gel was Coomassie-stained to show an equal protein loading for each lane ([…]). To compare the mAb20 or mAb39 reactivities to different ZnT homolog, we used commercial HEK293 lysates with lentivirus-mediated over-expression of ZnT1, ZnT2, ZnT3, ZnT4, ZnT7, ZnT8, ZnT10, each is tagged by a Flag tag at the C-terminus (Origene, catalog nos. LY500001, LC412033, LC423751, LC401170, LY415673, LC428544, LC406320, and LC412886). Approximately equal amounts of total protein (5 μg) was loaded to each lane, and then probed with mAb20, mAb39, or anti-FLAG antibody (Origene, catalog no. TA50011-100) as above. The expression levels of ZnT homologs varied with ZnT1 most abundantly expressed."}, "[3]": {"molecular_target": "T3, human ZnT8-His (human, UniProt Q8IWU4-2 1-320, limits assumed)", "T3 construct": "Over-expressed in HEK293 cells, solubilized with DDM and immobilized on Ni-NTA plates (native or unfolded with 2% SDS), or SDS-denatured on immunoblots; also called human ZnT8 with C-terminal poly-histidine tag; not shown: C-terminal poly-histidine tag", "T3 sequence (looked up)": "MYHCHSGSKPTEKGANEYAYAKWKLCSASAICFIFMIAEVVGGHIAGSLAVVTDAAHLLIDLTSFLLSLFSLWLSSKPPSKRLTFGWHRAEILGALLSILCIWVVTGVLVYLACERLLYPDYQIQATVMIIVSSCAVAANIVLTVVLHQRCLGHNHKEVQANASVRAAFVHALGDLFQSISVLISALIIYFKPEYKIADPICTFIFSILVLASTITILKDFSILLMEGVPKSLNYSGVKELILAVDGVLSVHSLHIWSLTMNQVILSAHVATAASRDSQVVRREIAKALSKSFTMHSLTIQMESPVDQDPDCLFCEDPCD", "test": "ELISA titration on ZnT8-His immobilized on Ni-NTA plate; apparent binding affinity, one-component fit; DDM-solubilized human ZnT8 immobilized to Ni-NTA plate via His-tag; mAb titration", "excerpt": "as §1, §2"}}, "note": "Changes are numbered by the printed parent chain."}
{"binder": "B1", "values": [{"measurement": "Kd", "setting": "[1]", "result": 1420, "unit": "nM"}, {"measurement": "binding result", "setting": "[2]", "result": "no binding"}, {"measurement": "Kd", "setting": "[3]", "result": 2.5, "unit": "nM"}]}
{"binder": "B2", "values": [{"measurement": "Kd", "setting": "[1]", "result": 35.8, "unit": "nM"}, {"measurement": "binding result", "setting": "[2]", "result": "no binding"}, {"measurement": "Kd", "setting": "[3]", "result": 17.6, "unit": "nM"}]}
